Consider 1 molecule from PMC7673989 (2020).

The target in assay [1] is T1, KETWV peptide (synthetic construct).
T1 chain: KETWV
The assay can be described thus: ITC, 21 °C.

Assay [2] has as its target T1, KETWV peptide. The assay can be described thus: intrinsic tryptophan fluorescence quenching, 21 °C.

B1: PSD-95 PDZ3 302-403 (protein)
chain: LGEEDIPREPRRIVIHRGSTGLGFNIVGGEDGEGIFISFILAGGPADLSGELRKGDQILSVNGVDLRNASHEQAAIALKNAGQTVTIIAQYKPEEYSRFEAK
As usually defined, the Kd is a measure of binding affinity in units of concentration. Regarding B1, the Kd with KETWV peptide [1] is 25.2 µM; in the assay with KETWV peptide [2] it was 24.6 µM.
